Measurements from the Human Domainome abundance scans (Beltran et al. 2025).
± gives the uncertainty stated by the source.

B1: Tripartite motif-containing protein 44, residues 174 to 218; numbered along this chain, Q96DX7 (parent)
chain: VAKRKCPDHGLDLSTYCQEDRQLICVLCPVIGAHQGHQLSTLDEA

Variants of: B1
Test: abundance fitness (aPCA) (normalised: wild type 0, dead -1); higher = more abundant; growth selection in yeast, the domain comes from the species named
Details: Homo sapiens

Point of comparison: VAKRICPDHGLDLSTYCQEDRQLICVLCPVIGAHQGHQLSTLDEA, abundance fitness -0.198 ± 0.16. Against it:
- VAKRKCPDHGLDLSTYCAEDRQLICVLCPVIGAHQGHQLSTLDEA — within error, -0.021 ± 0.026
- VLKRKCPDHGLDLSTYCQEDRQLICVLCPVIGAHQGHQLSTLDEA — within error, -0.031 ± 0.032
- VGKRKCPDHGLDLSTYCQEDRQLICVLCPVIGAHQGHQLSTLDEA — within error, -0.04 ± 0.027
- VAKRKCPDHGLDLSTYCQEDRQLICVLCPEIGAHQGHQLSTLDEA — higher, 0.013 ± 0.03
- VAKRYCPDHGLDLSTYCQEDRQLICVLCPVIGAHQGHQLSTLDEA — within error, -0.221 ± 0.06
- VAKRKCPDHGLDLSTYCQEDRQLICVLCPVIGAHQGHQLSTLNEA — within error, -0.026 ± 0.044
- VAKNKCPDHGLDLSTYCQEDRQLICVLCPVIGAHQGHQLSTLDEA — higher, 0.071 ± 0.064
- VAKRKCPDHGLDLSTQCQEDRQLICVLCPVIGAHQGHQLSTLDEA — within error, -0.029 ± 0.035
- VAKRKCPDHGLDLSTPCQEDRQLICVLCPVIGAHQGHQLSTLDEA — within error, -0.379 ± 0.038
- VAKRKCPDHGLDLSTVCQEDRQLICVLCPVIGAHQGHQLSTLDEA — within error, -0.052 ± 0.028
- VAKRKCPDHGLDLSTSCQEDRQLICVLCPVIGAHQGHQLSTLDEA — within error, -0.16 ± 0.031
- VAKRKCADHGLDLSTYCQEDRQLICVLCPVIGAHQGHQLSTLDEA — within error, -0.013 ± 0.029
- VAKRKCGDHGLDLSTYCQEDRQLICVLCPVIGAHQGHQLSTLDEA — within error, -0.169 ± 0.027
- VAKRKCPDHGLDLSTYCQEDRQLICVLCPVIGAHQGHQLSLLDEA — within error, -0.087 ± 0.028
- VAKRKCPDHGLDLSTYCQEDRQLICVLCPVIGAHQGHQLSWLDEA — within error, -0.131 ± 0.029
- VAKRKCPDHGLDLSTYCQEDRQLICVLCPVIGAHQGHQLSFLDEA — within error, -0.254 ± 0.051
- VAKRKCPDHGLDLSTYCQEDRQLICCLCPVIGAHQGHQLSTLDEA — higher, 0.002 ± 0.032
- VAKRKCPDHGLDLSTYCQEDRQLICELCPVIGAHQGHQLSTLDEA — higher, 0.066 ± 0.028
- VAKRKCPDHGLDLSTYCQEDRQLICFLCPVIGAHQGHQLSTLDEA — within error, -0.052 ± 0.045
- VAKRKCPDHGLDLSTYCQEDRQLICQLCPVIGAHQGHQLSTLDEA — higher, 0.074 ± 0.032
- VAKRKCPDHGLDLSTYCQEDRQLICVPCPVIGAHQGHQLSTLDEA — lower, -0.624 ± 0.055
- VAKRKCPDHGLDLSTYCQEDRQLCCVLCPVIGAHQGHQLSTLDEA — within error, -0.043 ± 0.033
- VAKRKCPDHGLDLSTYCQEDRQLKCVLCPVIGAHQGHQLSTLDEA — within error, -0.138 ± 0.037
- VAKRKCPDHGLDLSTYCQEDRQLRCVLCPVIGAHQGHQLSTLDEA — within error, -0.171 ± 0.026
- VAKRKCPDHGLDLSTYCQEDRQLICVLCPVIGAHQGMQLSTLDEA — lower, -0.676 ± 0.038
- VAKRKCPDHGLDLSTYCQEDRQLICVLCPVIGAHQGQQLSTLDEA — lower, -0.599 ± 0.043
- VAKRKCPDHGLDFSTYCQEDRQLICVLCPVIGAHQGHQLSTLDEA — within error, -0.186 ± 0.054
- VAKRKCPDHGLDTSTYCQEDRQLICVLCPVIGAHQGHQLSTLDEA — within error, -0.079 ± 0.032
- VAKRKCPDHGLDGSTYCQEDRQLICVLCPVIGAHQGHQLSTLDEA — within error, -0.282 ± 0.027
- VAKRKCPDHGLDISTYCQEDRQLICVLCPVIGAHQGHQLSTLDEA — within error, -0.154 ± 0.13
- VAKRKCPDHGLDHSTYCQEDRQLICVLCPVIGAHQGHQLSTLDEA — within error, -0.339 ± 0.056
- VAKRKCPDHGLDLSTYCQEDRQLICVLCPVIPAHQGHQLSTLDEA — within error, -0.22 ± 0.037
- VAKRKCPDHGLDLSTYCQEDRQLICVLCPVIRAHQGHQLSTLDEA — lower, -0.492 ± 0.029
- VAKRKCPDHGLDLSTYCQEDRQLICVLCPVIQAHQGHQLSTLDEA — lower, -0.491 ± 0.046
- VAKRKCPDHGLDLSTYCQEDRQLICVLCPVIKAHQGHQLSTLDEA — within error, -0.261 ± 0.043
- MAKRKCPDHGLDLSTYCQEDRQLICVLCPVIGAHQGHQLSTLDEA — within error, -0.032 ± 0.056
- FAKRKCPDHGLDLSTYCQEDRQLICVLCPVIGAHQGHQLSTLDEA — within error, -0.197 ± 0.06
- AAKRKCPDHGLDLSTYCQEDRQLICVLCPVIGAHQGHQLSTLDEA — within error, -0.13 ± 0.034
- VAKRKCPDVGLDLSTYCQEDRQLICVLCPVIGAHQGHQLSTLDEA — lower, -0.986 ± 0.048
- VAKRKTPDHGLDLSTYCQEDRQLICVLCPVIGAHQGHQLSTLDEA — lower, -0.783 ± 0.072
- VAKRKCPDHGLDLSTYCQECRQLICVLCPVIGAHQGHQLSTLDEA — within error, -0.045 ± 0.045
- VAKRKCPDHGLDLSTYCQEMRQLICVLCPVIGAHQGHQLSTLDEA — lower, -0.685 ± 0.051
- VAKRKCPDHGLDLSTYCQEVRQLICVLCPVIGAHQGHQLSTLDEA — lower, -0.642 ± 0.032
- VAKRKCPDHGLDLSTYCQEHRQLICVLCPVIGAHQGHQLSTLDEA — within error, -0.141 ± 0.047
- VAFRKCPDHGLDLSTYCQEDRQLICVLCPVIGAHQGHQLSTLDEA — within error, -0.124 ± 0.054
- VAVRKCPDHGLDLSTYCQEDRQLICVLCPVIGAHQGHQLSTLDEA — within error, -0.076 ± 0.028
- VAERKCPDHGLDLSTYCQEDRQLICVLCPVIGAHQGHQLSTLDEA — higher, 0.02 ± 0.028
- VAGRKCPDHGLDLSTYCQEDRQLICVLCPVIGAHQGHQLSTLDEA — within error, -0.052 ± 0.026
- VASRKCPDHGLDLSTYCQEDRQLICVLCPVIGAHQGHQLSTLDEA — within error, -0.056 ± 0.031
- VAARKCPDHGLDLSTYCQEDRQLICVLCPVIGAHQGHQLSTLDEA — within error, -0.134 ± 0.027
- VAKRKCPDHGLDLSTYCQEDRQLICVLCPVDGAHQGHQLSTLDEA — higher, 0.062 ± 0.04
- VAKRKCPDHGLDLSTYCQEDRKLICVLCPVIGAHQGHQLSTLDEA — higher, 0.027 ± 0.037
- VAKRKCPDHGLDLSTYCQEDRWLICVLCPVIGAHQGHQLSTLDEA — lower, -0.552 ± 0.032
- VAKRKCPDHGLDLSTYCQEDRALICVLCPVIGAHQGHQLSTLDEA — within error, -0.019 ± 0.027
- VAKRKCPDHGWDLSTYCQEDRQLICVLCPVIGAHQGHQLSTLDEA — within error, -0.214 ± 0.028
- VAKRKCPDHGHDLSTYCQEDRQLICVLCPVIGAHQGHQLSTLDEA — higher, 0.033 ± 0.05
